Consider 2 molecules from publication PMC4156907 (Molecular cell, 2014).

One data set deals with T1, LGP2 (UniProt Q96C10 1-678).
T1 sequence: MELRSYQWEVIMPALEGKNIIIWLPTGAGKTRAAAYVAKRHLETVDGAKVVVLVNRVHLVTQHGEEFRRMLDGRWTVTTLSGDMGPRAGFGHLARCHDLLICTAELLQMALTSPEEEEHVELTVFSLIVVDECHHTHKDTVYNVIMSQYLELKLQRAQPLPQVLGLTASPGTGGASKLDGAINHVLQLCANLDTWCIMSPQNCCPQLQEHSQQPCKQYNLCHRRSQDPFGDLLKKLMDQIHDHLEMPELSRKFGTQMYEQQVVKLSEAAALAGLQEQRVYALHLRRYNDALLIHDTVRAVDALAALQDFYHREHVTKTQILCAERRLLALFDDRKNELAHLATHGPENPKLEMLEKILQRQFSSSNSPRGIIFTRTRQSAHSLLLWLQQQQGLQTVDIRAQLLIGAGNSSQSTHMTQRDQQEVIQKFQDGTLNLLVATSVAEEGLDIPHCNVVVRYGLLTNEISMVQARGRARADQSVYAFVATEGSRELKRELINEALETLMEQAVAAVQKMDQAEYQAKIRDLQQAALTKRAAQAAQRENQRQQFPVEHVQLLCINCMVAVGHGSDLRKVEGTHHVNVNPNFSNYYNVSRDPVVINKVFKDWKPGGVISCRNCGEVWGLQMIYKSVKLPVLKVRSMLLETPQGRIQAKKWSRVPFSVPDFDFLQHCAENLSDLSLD
The data set is described as follows: single-molecule TIRF.

For data set [1], the target named is T2, MDA5-C (UniProt Q9BYX4 295-1025).
T2 sequence: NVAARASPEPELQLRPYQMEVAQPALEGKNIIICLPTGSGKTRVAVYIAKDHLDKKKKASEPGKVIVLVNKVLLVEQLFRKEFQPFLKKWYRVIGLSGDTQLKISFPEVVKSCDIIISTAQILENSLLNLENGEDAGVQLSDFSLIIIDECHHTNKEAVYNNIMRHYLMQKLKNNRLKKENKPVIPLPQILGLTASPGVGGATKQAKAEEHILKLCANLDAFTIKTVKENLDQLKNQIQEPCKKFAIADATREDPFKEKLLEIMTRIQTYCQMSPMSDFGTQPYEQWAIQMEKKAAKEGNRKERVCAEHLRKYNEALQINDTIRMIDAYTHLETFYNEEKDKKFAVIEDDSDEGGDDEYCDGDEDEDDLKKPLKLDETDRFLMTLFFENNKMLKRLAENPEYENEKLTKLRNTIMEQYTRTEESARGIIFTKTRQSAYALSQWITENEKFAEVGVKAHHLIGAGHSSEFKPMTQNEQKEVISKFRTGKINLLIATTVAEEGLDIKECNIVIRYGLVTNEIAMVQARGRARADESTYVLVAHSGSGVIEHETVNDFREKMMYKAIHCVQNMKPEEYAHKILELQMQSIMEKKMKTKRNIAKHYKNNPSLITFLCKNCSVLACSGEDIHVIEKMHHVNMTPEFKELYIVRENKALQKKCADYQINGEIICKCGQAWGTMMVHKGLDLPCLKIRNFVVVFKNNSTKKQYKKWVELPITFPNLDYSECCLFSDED
The data set is described as follows: single-molecule TIRF.

Data set [2] deals with T2, MDA5-C. The data set is described as follows: single-molecule TIRF. The source holds these as a separate data set.
Data set [3] has as its target T3, MDA5 (full length, FLAG-tagged) (UniProt Q9BYX4 1-1025).
T3 sequence (looked up): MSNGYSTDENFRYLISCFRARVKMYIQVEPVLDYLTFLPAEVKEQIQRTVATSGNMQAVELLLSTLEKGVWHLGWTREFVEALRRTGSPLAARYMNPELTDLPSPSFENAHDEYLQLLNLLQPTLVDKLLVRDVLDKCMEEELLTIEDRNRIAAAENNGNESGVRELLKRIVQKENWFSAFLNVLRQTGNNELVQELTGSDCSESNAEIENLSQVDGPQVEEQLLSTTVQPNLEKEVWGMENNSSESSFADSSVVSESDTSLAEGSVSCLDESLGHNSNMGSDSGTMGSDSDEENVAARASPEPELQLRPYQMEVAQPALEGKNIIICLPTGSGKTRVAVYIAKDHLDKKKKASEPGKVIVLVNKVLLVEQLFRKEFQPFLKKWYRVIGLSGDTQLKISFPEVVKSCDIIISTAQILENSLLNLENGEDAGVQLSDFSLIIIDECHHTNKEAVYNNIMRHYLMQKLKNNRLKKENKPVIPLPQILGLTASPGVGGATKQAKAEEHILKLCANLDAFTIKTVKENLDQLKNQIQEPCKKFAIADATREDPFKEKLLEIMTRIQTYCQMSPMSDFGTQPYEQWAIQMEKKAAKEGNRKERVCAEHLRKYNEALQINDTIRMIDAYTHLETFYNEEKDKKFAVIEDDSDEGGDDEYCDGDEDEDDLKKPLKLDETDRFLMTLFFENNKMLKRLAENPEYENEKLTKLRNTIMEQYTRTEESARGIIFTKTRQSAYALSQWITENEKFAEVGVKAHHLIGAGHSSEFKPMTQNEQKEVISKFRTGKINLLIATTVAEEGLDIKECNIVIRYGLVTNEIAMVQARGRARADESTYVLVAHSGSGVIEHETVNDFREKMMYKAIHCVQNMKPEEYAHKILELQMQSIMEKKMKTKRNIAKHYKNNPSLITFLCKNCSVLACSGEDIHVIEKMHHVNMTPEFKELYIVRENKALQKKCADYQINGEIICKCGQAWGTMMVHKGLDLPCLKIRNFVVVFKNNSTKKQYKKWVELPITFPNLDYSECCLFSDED
The data set is described as follows: co-IP.

Where two headings read alike, the source gives them in different places.

B1: 44bp dsRNA (dsRNA)
RNA 1: CGAGCAGACUGGCAAUCCGGAUCUCCCAGGCCCGGCUUUCAAGC
RNA 2: GCUUGAAAGCCGGGCCUGGGAGAUCCGGAUUGCCAGUCUGCUCG
modifications: strand 2 5' amino modifier C6 (5AmMC6)
With B1, the Kd in the data set with LGP2 turned out to be 56.1 ± 10 nM; in the data set with MDA5-C [1], 326 ± 138 nM; in the data set with MDA5-C [2], 771 ± 207 nM.

B2: LGP2 (FLAG-tagged) (natural protein, UniProt Q96C10 1-678, looked up)
chain: T1 sequence
With B2, the “fold increase of co-precipitated LGP2 with poly(I:C) against without poly(I:C)” value in data set [3] is more than 3 fold.
